The test addresses T1, MASP-1 (MBL-associated serine protease 1) (human, UniProt P48740 20-699).
T1 sequence (looked up): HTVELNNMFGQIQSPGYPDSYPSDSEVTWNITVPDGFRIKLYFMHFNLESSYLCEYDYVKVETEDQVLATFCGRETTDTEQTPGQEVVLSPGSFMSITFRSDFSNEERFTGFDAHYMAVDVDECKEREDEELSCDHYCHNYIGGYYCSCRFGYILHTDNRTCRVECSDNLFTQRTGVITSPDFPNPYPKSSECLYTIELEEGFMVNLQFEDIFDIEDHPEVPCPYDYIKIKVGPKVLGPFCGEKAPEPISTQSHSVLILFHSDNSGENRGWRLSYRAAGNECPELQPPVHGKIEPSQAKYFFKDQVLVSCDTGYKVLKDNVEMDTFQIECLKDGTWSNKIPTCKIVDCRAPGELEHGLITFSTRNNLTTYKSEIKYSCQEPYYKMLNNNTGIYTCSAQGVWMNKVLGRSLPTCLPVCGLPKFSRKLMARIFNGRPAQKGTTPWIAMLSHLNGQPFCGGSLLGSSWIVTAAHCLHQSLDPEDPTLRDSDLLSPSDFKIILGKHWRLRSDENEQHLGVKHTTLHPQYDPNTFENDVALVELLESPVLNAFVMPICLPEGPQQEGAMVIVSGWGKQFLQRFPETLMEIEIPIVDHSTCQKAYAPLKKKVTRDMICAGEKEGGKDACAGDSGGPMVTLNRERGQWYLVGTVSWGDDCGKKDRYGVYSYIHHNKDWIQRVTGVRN
Kind of test: co-capture on anti-MASP-1-coated wells, eluate blotted with anti-pMASP-3.

B1: mannan binding lectin-associated serine protease 3 (MASP-3), natural protein from human plasma/serum (enzyme)
chain: HTVELNNMFGQIQSPGYPDSYPSDSEVTWNITVPDGFRIKLYFMHFNLESSYLCEYDYVKVETEDQVLATFCGRETTDTEQTPGQEVVLSPGSFMSITFRSDFSNEERFTGFDAHYMAVDVDECKEREDEELSCDHYCHNYIGGYYCSCRFGYILHTDNRTCRVECSDNLFTQRTGVITSPDFPNPYPKSSECLYTIELEEGFMVNLQFEDIFDIQDHPEVPCPYDYIKIKVGPKVLGPFCGEKAPEPISTQSHSVLILFHSDNSAENRGWRLSYRAAGNECPELQPPVHGKIEPSQAKYFFKDQVLVSCDTGYKVLKDNVEMDTFQIECLKDGTWSNKIPTCKIVDCRAPGELEHGLITFSTRNNLTTYKSEIKYSCQEPYYKMLNNNTGIYTCSAQGVWMNKVLGRSLPTCLPECGQPSRSLPSLVKRIIGGRNAEPGLFPWQALIVVEDTSRVPNDKWFGSGALLSASWILTAAHVLRSQRRDTTVIPVSKEHVTVYLGLHDVRDKSGAVNSSAARVVLHPDFNIQNYNHDIALVQLQEPVPLGPHVMPVCLPRLEPEGPAPHMLGLVAGWGISNPNVTVDEIISSGTRTLSDVLQYVKLPVVPHAECKTSYESRSGNYSVTENMFCAGYYEGGKDTCLGDSGGAFVIFDDLSQRWVVQGLVSWGGPEECGSKQVYGVYTKVSNYVDWVWEQMGLPQSVVEPQVER
notes: Natural protein in lectin preparations, MBL complexes or serum; On reducing blots only the B chain is seen; also called MBL-associated serine protease-3; lectin associated serine protease 110
With B1, the binding result was “no binding”.
